Experiment [1] addresses T1, human B7H4 (human, UniProt Q7Z7D3 25-282).
T1 construct: whole, on cells; also called Human B7H4-293T; B7S1
T1 sequence (looked up): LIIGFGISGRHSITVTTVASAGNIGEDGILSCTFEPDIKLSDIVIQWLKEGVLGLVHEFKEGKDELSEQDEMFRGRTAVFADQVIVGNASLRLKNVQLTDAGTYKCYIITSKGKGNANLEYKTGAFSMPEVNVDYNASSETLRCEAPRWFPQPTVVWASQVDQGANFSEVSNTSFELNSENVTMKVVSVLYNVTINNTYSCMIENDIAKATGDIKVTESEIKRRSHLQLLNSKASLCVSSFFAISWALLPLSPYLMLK
In words: flow cytometry on human B7H4-transfected HEK293T cells, PE anti-human IgG Fc secondary antibody.

In experiment [2] the target is T1, human B7H4. In words: cell-based or functional assay.
For experiment [3], the target named is T2, human PD-L2 (B7-DC) (human, UniProt Q9BQ51 20-273).
T2 construct: whole, on cells; also called CD273
T2 sequence (looked up): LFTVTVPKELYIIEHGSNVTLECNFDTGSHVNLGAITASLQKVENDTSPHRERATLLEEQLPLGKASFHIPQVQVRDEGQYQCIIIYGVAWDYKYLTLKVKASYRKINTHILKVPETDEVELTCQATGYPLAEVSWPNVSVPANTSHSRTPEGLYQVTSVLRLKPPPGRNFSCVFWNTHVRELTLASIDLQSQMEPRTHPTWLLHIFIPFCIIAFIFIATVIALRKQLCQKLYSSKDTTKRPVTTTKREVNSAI
As to the kind of experiment: flow cytometry on HEK293T cells stably expressing the human protein, one concentration.

The target in experiment [4] is T3, human CD276 (B7-H3) (human, UniProt Q5ZPR3 29-534).
T3 construct: whole, on cells
T3 sequence (looked up): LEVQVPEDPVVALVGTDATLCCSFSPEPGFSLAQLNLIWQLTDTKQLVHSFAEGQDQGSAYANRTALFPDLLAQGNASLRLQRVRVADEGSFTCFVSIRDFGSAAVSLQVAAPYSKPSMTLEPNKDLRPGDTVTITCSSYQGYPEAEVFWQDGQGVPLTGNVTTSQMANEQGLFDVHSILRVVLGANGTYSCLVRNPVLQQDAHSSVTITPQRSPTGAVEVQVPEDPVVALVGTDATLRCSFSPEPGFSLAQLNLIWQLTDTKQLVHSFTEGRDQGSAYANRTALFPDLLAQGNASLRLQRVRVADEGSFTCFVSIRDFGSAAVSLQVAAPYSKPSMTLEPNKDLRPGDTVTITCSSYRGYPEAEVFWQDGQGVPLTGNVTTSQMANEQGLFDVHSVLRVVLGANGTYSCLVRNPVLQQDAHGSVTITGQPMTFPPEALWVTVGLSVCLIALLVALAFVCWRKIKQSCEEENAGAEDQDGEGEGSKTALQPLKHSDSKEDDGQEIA
Described as above.

For experiment [5], the target named is T4, human CD80 (B7-1) (human, UniProt P33681 35-288).
T4 construct: whole, on cells
T4 sequence (looked up): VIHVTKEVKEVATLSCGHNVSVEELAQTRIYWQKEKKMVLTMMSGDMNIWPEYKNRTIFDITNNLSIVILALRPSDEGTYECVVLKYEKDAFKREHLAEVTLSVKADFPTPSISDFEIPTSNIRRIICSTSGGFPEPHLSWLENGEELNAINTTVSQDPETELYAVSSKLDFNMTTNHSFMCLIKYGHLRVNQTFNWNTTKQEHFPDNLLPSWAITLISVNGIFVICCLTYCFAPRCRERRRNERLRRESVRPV
The description is as above.

Experiment [6] concerns the target T5, human VISTA (B7-H5) (human, UniProt Q9H7M9 33-311).
T5 construct: whole, on cells
T5 sequence (looked up): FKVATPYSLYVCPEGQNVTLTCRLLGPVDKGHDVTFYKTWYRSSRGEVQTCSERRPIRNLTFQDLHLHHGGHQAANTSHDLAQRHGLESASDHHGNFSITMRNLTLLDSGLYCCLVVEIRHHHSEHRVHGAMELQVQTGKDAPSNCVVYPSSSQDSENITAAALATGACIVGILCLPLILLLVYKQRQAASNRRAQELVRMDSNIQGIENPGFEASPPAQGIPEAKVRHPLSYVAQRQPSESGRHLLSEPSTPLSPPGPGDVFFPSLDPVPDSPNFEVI
Described as above.

The target in experiment [7] is T6, human ICOSLG (B7-H2) (human, UniProt O75144 19-302).
T6 construct: whole, on cells
T6 sequence (looked up): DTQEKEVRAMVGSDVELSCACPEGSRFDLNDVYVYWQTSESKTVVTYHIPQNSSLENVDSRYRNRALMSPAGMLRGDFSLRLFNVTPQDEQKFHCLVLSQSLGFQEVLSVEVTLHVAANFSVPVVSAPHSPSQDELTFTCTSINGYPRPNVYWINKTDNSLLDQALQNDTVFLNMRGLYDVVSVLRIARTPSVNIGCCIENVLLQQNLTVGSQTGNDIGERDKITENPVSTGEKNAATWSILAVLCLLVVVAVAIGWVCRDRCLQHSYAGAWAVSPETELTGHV
The experiment is described as above.

Experiment [8] has as its target T7, human PD-L1 (B7-H1) (human, UniProt Q9NZQ7 19-290).
T7 construct: whole, on cells; also called CD274
The description is as above.

Experiment [9] addresses T8, human CD86 (B7-2) (human, UniProt P42081 24-329).
T8 construct: whole, on cells
T8 sequence (looked up): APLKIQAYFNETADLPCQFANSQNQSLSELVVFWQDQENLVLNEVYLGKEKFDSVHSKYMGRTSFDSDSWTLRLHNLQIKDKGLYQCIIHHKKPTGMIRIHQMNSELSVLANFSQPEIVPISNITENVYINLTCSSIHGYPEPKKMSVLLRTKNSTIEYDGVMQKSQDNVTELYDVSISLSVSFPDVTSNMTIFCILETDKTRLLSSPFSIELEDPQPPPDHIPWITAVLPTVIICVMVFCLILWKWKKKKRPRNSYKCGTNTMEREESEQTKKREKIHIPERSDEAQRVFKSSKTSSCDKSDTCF
The description is as above.

T7 sequence (Q9NZQ7 19-290): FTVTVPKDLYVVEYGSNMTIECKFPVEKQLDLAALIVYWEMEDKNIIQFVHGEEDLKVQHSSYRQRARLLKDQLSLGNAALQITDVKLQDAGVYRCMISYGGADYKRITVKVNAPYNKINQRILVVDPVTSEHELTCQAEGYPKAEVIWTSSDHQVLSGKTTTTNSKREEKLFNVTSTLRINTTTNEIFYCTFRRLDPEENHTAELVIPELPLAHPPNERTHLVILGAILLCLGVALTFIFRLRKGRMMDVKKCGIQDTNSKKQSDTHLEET

B1: antibody-drug conjugate DB1001-X2 (antibody, DAR 5.4, V domains shown)
VH: QVQLVESGGGVVQPGRSLRLSCAASGFTFRSFGMHWVRQAPGKGLEWVAVISYDASNEYYADSVKGRFIISRDNSKDTLYLQMNSLRAGDTAVYYCAKGGALRWYFAYWGQGTLVTVSS
VL: EIVMTQSPATLSVSPGERATLSCRASQSISSNLGWYQQKPGQAPRLLIYGASTRATGIPARFSGSGSGTEFTLTISSLQSEDFAVYYCQQYRSWPPLTFGGGTKVEIKR
modifications: linker-cytotoxin X2 (payload P-III-30) coupled after TCEP reduction of the antibody; drug-to-antibody ratio (DAR) of 5.4; conjugation residues not stated
notes: also called anti-B7H4 ADC DB1001-X2
For the molecule B1, the EC50 in experiment [1] is 2.18 nM. Moreover, the “Fold over blank control, endocytosis by MDA-MB-468 cells” value in experiment [2] is 2.4 fold. In addition, the binding result in [3], in experiment [4], in [5], in experiment [6], in [7] and in experiment [8] was “no binding (tested: 100 nM or 300 nM)” throughout. In [9], the binding result is “no binding (tested: 100 nM or 300 nM)”.

These data come from patent US20250032630A1, “B7H4 ANTIBODY-DRUG CONJUGATE AND USE THEREOF” (Duality Biologics (Suzhou) Co., Ltd., priority 2022, published 2025).
